From patent US20120208238A1
Changes are numbered by the printed parent chain. Names may count otherwise. Blank lines part the entries; values can stand above or below the binder they belong to.

Tests used:
[1] = molecular target: soluble human FcγRIIa^R131-GST (human) (UniProt P12318); assay: SPR (BIAcore 3000), antibody on CM5 chip, soluble dimeric receptor-GST injected, bivalent analyte model
[2] = molecular target: soluble human FcγRIIb-GST (human) (UniProt P31994); assay: as above
[3] = molecular target: soluble human FcγRIIa^R131-GST (human) (UniProt P12318); assay: SPR; ratio of the Kd for FcγRIIb-GST over that for FcγRIIa-GST
[4] = molecular target: soluble human FcγRIIa^R131-GST (human) (UniProt P12318); assay: flow cytometry of E. coli spheroplasts displaying the full length IgG, 20 nM FcγRIIa-GST-Alexa488 in the presence of 100 nM unlabelled FcγRIIb-GST

soluble human FcγRIIb-GST (human), sequence (P31994 43-217): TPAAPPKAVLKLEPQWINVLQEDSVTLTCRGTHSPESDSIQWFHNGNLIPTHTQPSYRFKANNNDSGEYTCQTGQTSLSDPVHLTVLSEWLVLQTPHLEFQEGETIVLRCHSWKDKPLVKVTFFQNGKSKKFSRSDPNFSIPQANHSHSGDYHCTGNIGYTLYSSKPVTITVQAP
soluble human FcγRIIa^R131-GST (human), sequence (P12318 34-217 H167R): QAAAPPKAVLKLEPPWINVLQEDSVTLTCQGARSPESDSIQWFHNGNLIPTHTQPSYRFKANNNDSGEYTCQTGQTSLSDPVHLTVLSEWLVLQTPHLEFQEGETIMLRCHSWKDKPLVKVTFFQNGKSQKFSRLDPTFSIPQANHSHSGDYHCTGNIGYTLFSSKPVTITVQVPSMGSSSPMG

- Kd [1]: 102 nM
- koff [1]: 0.00352 s⁻¹
- kon [1]: 34600 M⁻¹ s⁻¹
- Kd [2]: 975 nM
- koff [2]: 0.0194 s⁻¹
- kon [2]: 19900 M⁻¹ s⁻¹
- KD2b/KD2a [3]: 9.6
- FACS mean value [4]: 409
- M (mean fluorescence intensity) [4]: 413
B1: aglycosylated Fc1001 trastuzumab (antibody, part only; not given: Fab (trastuzumab), IgG1, not shown: another chain or arm of the molecule)
Fc: DKTHTCPPCPAPELLGGPSVFLFPPKPKDTLMISRTPEVTCVVVDVSPEDPEVKFNWYVDGVEVHNAKTKPREKQYNGAYRVVSVLTVLHQDWLNGKEYKCKVSNKALPAPIEKTISKAKGQPREPQVYTLPPSRDELTKSQVSLTCLVKGFYPSDIAVEWVSNGQPENNYKTTPPVLDSDGSFFLYSKLTVDKSRWQQGNVFSCSVLHEALHNHYTQKSLSLSPGK
modifications: aglycosylated (T299A)

- Kd [1]: 389 nM
- koff [1]: 0.0079 s⁻¹
- kon [1]: 20300 M⁻¹ s⁻¹
- Kd [2]: 1380 nM
- koff [2]: 0.00866 s⁻¹
- kon [2]: 6260 M⁻¹ s⁻¹
- KD2b/KD2a [3]: 3.56
- FACS mean value [4]: 277
B2: aglycosylated Fc1003 trastuzumab (antibody, part only; not given: Fab (trastuzumab), IgG1, not shown: another chain or arm of the molecule)
Fc: B1 Fc with P48H, K74E, S141N, K172E, V177M
modifications: aglycosylated (T299A)
